Assay results: publication PMC10942606

How the values were obtained:
Test in all cases: EMSA
Pcf1 WT;Pcf2;Pcf3;SpPCNA = Pcf1 WT;Pcf2;Pcf3;SpPCNA (Schizosaccharomyces …, UniProt Q1MTN9;O13985;Q9Y825;Q03392 1-544;1-512;1-408;1-260, |||)
Pcf1_WHD = biological target: T1, Pcf1_WHD (Schizosaccharomyces pombe, UniProt Q1MTN9 471-544)
T1 sequence: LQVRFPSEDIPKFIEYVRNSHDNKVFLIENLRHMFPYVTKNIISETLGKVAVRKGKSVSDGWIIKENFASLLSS

[1] = biological target: Pcf1-ΔWHD;Pcf2;Pcf3;SpPCNA (Schizosaccharomyces …, UniProt Q1MTN9;O13985;Q9Y825;Q03392 1-470;1-512;1-408;1-260, del471-544|||)
Sequence of Pcf1-ΔWHD;Pcf2;Pcf3;SpPCNA (Q03392 whole entry, stated change not applied, one chain of several): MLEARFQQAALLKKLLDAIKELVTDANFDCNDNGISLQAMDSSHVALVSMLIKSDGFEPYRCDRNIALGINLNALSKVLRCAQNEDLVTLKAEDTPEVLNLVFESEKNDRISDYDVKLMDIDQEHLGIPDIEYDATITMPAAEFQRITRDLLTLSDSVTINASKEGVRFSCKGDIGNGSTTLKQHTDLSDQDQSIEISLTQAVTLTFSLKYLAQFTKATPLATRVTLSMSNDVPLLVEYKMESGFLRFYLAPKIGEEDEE

Pcf1 WT;Pcf2;Pcf3 = biological target: T2, Pcf1 WT;Pcf2;Pcf3 (Schizosaccharomyces …, UniProt Q1MTN9;O13985;Q9Y825 1-544;1-512;1-408, ||)
T2 sequence 1: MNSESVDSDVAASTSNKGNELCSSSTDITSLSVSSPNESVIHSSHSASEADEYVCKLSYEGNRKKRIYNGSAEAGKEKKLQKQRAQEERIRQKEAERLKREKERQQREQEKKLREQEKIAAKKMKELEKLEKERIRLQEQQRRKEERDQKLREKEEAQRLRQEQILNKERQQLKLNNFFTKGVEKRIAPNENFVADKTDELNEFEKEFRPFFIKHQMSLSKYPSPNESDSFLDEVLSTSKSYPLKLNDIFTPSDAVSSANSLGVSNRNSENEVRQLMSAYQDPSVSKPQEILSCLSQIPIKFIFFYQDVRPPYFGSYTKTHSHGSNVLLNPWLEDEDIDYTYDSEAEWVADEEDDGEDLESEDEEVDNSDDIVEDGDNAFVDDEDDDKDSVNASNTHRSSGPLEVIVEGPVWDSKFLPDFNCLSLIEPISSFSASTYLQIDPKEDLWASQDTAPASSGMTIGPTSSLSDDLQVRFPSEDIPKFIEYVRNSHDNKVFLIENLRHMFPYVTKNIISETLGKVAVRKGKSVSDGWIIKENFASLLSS
T2 sequence 2: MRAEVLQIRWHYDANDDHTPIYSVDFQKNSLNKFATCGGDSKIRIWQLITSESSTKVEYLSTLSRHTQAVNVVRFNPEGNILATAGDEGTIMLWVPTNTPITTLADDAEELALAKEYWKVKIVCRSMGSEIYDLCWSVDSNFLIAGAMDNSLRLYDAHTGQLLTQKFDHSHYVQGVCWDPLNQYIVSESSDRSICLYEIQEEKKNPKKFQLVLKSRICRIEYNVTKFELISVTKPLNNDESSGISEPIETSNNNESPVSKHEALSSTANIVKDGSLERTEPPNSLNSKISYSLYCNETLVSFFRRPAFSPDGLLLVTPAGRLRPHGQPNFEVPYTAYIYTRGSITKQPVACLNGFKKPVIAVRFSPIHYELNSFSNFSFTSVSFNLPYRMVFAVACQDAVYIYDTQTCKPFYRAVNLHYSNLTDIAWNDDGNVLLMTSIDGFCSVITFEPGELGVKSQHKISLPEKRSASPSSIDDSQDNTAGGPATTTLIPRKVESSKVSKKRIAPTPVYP
T2 sequence 3: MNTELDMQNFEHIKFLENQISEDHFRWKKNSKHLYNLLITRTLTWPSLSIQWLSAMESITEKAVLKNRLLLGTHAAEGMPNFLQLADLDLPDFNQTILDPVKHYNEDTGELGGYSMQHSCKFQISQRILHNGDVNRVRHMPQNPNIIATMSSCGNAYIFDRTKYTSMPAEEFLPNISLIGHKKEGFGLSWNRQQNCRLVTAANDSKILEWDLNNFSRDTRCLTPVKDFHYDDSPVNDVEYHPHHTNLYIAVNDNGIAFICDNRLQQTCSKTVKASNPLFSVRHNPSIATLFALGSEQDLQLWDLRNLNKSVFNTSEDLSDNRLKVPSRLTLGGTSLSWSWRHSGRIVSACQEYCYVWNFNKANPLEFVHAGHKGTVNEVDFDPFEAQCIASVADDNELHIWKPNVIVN

Sequence of Pcf1 WT;Pcf2;Pcf3;SpPCNA (Q03392 whole entry, one chain of several): as the sequence (Q03392 whole entry, stated change not applied, one chain of several) above

B1: 40 bp dsDNA (dsDNA)
DNA 1: ATCAATATCCACCTGCAGATACTACCAAAAGTGTATTTGG
DNA 2: CCAAATACACTTTTGGTAGTATCTGCAGGTGGATATTGAT
**Q.** Does B1 bind (Pcf1 WT;Pcf2;Pcf3;SpPCNA)?
**A.** Result: binds

**Q.** Does B1 bind (Pcf1_WHD)?
**A.** Result: no binding

**Q.** Does B1 bind [1]?
**A.** Result: binds

**Q.** What about the “apparent K (half saturation)” value (Pcf1 WT;Pcf2;Pcf3) of the same binder?
**A.** Its value is 3.4 ± 0.4 µM.
